The record followed here is patent US20260284212 (published 2026).

The target in assay [1] is T1, human CD6 (human, UniProt P30203).
T1 chain: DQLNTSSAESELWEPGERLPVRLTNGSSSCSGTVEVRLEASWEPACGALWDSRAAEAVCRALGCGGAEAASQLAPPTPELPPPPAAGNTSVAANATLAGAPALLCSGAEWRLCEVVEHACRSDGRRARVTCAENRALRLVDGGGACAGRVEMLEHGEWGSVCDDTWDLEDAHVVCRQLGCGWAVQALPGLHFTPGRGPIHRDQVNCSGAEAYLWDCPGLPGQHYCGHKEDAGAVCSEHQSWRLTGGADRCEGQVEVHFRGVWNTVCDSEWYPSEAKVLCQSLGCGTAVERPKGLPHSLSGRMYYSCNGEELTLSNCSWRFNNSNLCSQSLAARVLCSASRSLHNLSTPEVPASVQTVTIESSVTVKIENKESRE
The assay can be described thus: ELISA. On the technique in general: In an ELISA, binding on a coated surface is turned into a signal by an enzyme label.

For assay [2], the target named is T1, human CD6.
The target in another assay is T2, human CD5 (human, UniProt P06127).
T2 chain: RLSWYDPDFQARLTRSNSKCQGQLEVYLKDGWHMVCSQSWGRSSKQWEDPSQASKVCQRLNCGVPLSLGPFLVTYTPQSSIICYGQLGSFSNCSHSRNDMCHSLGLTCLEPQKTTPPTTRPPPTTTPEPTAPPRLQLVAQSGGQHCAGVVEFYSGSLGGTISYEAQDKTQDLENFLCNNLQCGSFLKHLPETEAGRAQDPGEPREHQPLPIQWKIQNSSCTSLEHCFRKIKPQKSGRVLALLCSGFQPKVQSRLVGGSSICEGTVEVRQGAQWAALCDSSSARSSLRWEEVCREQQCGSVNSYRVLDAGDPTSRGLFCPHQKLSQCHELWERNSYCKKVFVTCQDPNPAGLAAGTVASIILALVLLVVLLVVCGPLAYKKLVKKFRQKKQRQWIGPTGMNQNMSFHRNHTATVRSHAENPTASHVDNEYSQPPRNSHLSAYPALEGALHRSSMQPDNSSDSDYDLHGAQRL
As to the kind of experiment: ELISA.

B1: CD601HH8 HuG1Fc (antibody, V domains shown)
VH: QVQLVESGGGLVQPGGSLRLSCSASERTFSDYAMGWFRQAPGKEREFVAAINWVGGSTYYADSVKGRFTISRDNSKNTLYLQMNSLRAEDTAVYYCVASWGAMPVLTHVINYWGKGTLVTVSS
In turn, B1 returned a concentration giving a half-maximal response (EC50) with human CD6 [1] of 0.053 nM. The equilibrium dissociation constant (Kd) with human CD6 [2] worked out at 0.24 nM. The binding result in the assay with human CD5 is on record as “no binding”.

B2: A1CD601 VHH HuG1Fc (chimeric) (antibody, V domains shown)
VH: QVQLQESGGGLVQAGGSLRLSCTASERTFSDYALGWFRQGPGKEREFVAAINWVGGSTYYADSVKGRFTISRDNAKNTLLLQMNSLKPEDTAVYFCVASWGAMPVLTHVINYWGKGTQVTVSS
Consider B2, for which, in the assay with human CD6 [1], the EC50 is 0.053 nM. The same molecule gave a Kd in the assay with human CD6 [2] of 0.21 nM. For the same molecule, the binding result in the assay with human CD5 is “no binding”.

B3: CD601HH14 HuG1Fc (antibody, V domains shown)
VH: QVQLVESGGGLVQPGGSLRLSCSASERTFSDYALGWFRQAPGKEREFVAAINWVGGSTYYADSVKGRFTISRDNAKNTLYLQMNSLRAEDTAVYYCVASWGAMPVLTHVINYWGKGTLVTVSS
In the assay with human CD6 [1], B3 registered an EC50 of 0.053 nM. This molecule also came in with a dissociation constant (Kd) with human CD6 [2] of 0.269 nM. Also, the binding result with human CD5 is reported as “no binding”.

B4: CD601HH10 HuG1Fc (antibody, V domains shown)
VH: QVQLQESGGGLVQPGGSLRLSCSASERTFSDYALGWFRQAPGKEREFVAAINWVGGSTYYADSVKGRFTISRDNSKNTLYLQMNSLRAEDTAVYYCVASWGAMPVLTHVINYWGKGTLVTVSS
B4 displayed an EC50 with human CD6 [1] of 0.066 nM. In the assay with human CD6 [2], this molecule came in with a Kd of 0.247 nM. The binding result in the assay with human CD5 is recorded as “no binding”.

B5: CD601HH12 HuG1Fc (antibody, V domains shown)
VH: QVQLVESGGGLVQPGGSLRLSCTASERTFSDYALGWFRQAPGKEREFVAAINWVGGSTYYADSVKGRFTISRDNSKNTLYLQMNSLRAEDTAVYYCVASWGAMPVLTHVINYWGKGTLVTVSS
B5 registered a 50% effective concentration (EC50) with human CD6 [1] of 0.05 nM. This molecule also had a Kd in the assay with human CD6 [2] of 0.222 nM. The binding result with human CD5 is “no binding”.

For orientation: EC50 means the concentration needed to bring the measured effect to its halfway point. Read a low EC50 as greater potency. As usually defined, the Kd is the concentration at which binding is half-saturated. High values mean lower affinity, low ones higher affinity.
